B1: Azoarcus group I ribozyme (parent)
chain: GUGCCUUGCGCCGGGAAACCACGCAAGGGAUGGUGUCAAAUUCGGCGAAACCUAAGCGCCCGCCCGGGCGUAUGGCAACGCCGAGCCAAGCUUCGGCGCCUGCGCCGAUGAAGGUGUAGAGACUAGACGGCACCCACCUAAGGCAAACGCUAUGGUGAAGGCAUAGUCCAGGGAGUGGCGAAAGUCACACAAACCGG

The variants in this data set derive from B1. Put plainly: reverse-splicing fitness (ratio to wild type); higher = more active; in vitro selection; Mg2+ level not given. The gist of the method: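 An in vitro group I ribozyme library with randomized positions was T7-transcribed and gel-purified. In triplicate, 10 pmol RNA in EPPS pH 7.5 was reacted with 50 pmoles of a 30-nt RNA substrate for 1 h at 37 °C across several added MgCl2 levels (1–48 mM), then stopped with EDTA. Products were reverse transcribed from a substrate-complementary primer, PCR-amplified and sequenced (HiSeq 4000). Fitness is a variant's read proportion after selection over that before, normalised to wild type.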
Take A111G A145G C150G U176C: the reverse-splicing fitness stood at 0.184. Then A111G A145G C150G U176A, with 0.111; and A111G A145G C150G U176G, with 0.0237. Then A111G C150A U176G, with 0.103; and A111G C150A U176A, with 0.275; and A111G C150A U176C, with 0.264.

As to A111G C150A C169U U176C, the reverse-splicing fitness stood at 0.0264. Then A111G C150A C169U U176A, with 0.0199; and A111G C150A C169U U176G, with 0.00628.

For A111G A145U C150A C169G, the reverse-splicing fitness is 0.016. A111G A145U C150A C169U: the reverse-splicing fitness came out at 0.0232. Regarding A111G A145U C150A C169A, the reverse-splicing fitness is 0.0105. As to A111G C150G C169U, the reverse-splicing fitness was 0.0227. Then A111G C150G C169A, with 0.0114; and A111G C150G C169G, with 0.0138. As to A111G C150G U176A, the reverse-splicing fitness was 0.0982.

In the case of A111G C150G U176C, the reverse-splicing fitness amounted to 0.166. On to A111G C150G U176G, for which the reverse-splicing fitness stood at 0.0168. Then A111G A145G C150A C169A U176G, with 0.00563; and A111G A145G C150A C169A U176C, with 0.0214; and A111G A145G C150A C169A U176A, with 0.0183. On to A111G A145U C150A, for which the reverse-splicing fitness stood at 0.365. Then A111G A145U C150U, with 0.952; and A111G A145U C150G, with 0.449; and A111G A145G C150U C169U U176A, with 0.0415.

Take A111G A145G C150U C169U U176C: the reverse-splicing fitness was 0.0611. For the variant A111G A145G C150U C169U U176G, the reverse-splicing fitness is 0.00616.

With A111G C150U C169A U176G, the reverse-splicing fitness stood at 0.00554. Turning to A111G C150U C169A U176A, the reverse-splicing fitness was found to be 0.0169. For the variant A111G C150U C169A U176C, the reverse-splicing fitness was found to be 0.0193. As for A111G A145U C150A C169U U176C, the reverse-splicing fitness came out at 0.0165.

Consider A111G A145U C150A C169U U176G, for which the reverse-splicing fitness worked out at 0.00519.

As to A111G A145U C150A C169U U176A, the reverse-splicing fitness is 0.0162.

For the variant A111G C150U C169G, the reverse-splicing fitness came to 0.0695. A111G C150U C169A: the reverse-splicing fitness was found to be 0.0299. Turning to A111G A145U C150G U176A, the reverse-splicing fitness is 0.17. Regarding A111G A145U C150G U176C, the reverse-splicing fitness turned out to be 0.226. Then A111G A145U C150G U176G, with 0.0305; and A111G A145U C150A C169G U176G, with 0.00512.

As to A111G A145U C150A C169G U176A, the reverse-splicing fitness came to 0.014. Then A111G A145U C150A C169G U176C, with 0.0131; and A111G A145U C169A, with 0.0537. Then A111G A145U C169U, with 0.194. Then A111G A145U C169G, with 0.13; and A111G A145U C150A U176C, with 0.237.

As to A111G A145U C150A U176G, the reverse-splicing fitness is 0.121. As for A111G A145U C150A U176A, the reverse-splicing fitness was determined as 0.224. Take A111G A145G C169G U176C: the reverse-splicing fitness is 0.0596. Then A111G A145G C169G U176A, with 0.0326; and A111G A145G C169G U176G, with 0.00638.

With A111G A145G C150G C169A U176A, the reverse-splicing fitness was 0.0122. Then A111G A145G C150G C169A U176C, with 0.0135; and A111G A145G C150G C169A U176G, with 0.00761.

Consider A111G A145G C150A C169U U176C, for which the reverse-splicing fitness is 0.0251. In the case of A111G A145G C150A C169U U176A, the reverse-splicing fitness worked out at 0.0202. Take A111G A145G C150A C169U U176G: the reverse-splicing fitness turned out to be 0.00641. Then A111G A145U C169G U176G, with 0.00522; and A111G A145U C169G U176C, with 0.0429; and A111G A145U C169G U176A, with 0.0268.

Turning to A111G A145U C150G C169U U176A, the reverse-splicing fitness was determined as 0.00751.

A111G A145U C150G C169U U176C: the reverse-splicing fitness is 0.0148. Then A111G A145U C150G C169U U176G, with 0.00488; and A111G A145U C150U C169G U176G, with 0.0059. As for A111G A145U C150U C169G U176A, the reverse-splicing fitness turned out to be 0.0215.

For the variant A111G A145U C150U C169G U176C, the reverse-splicing fitness is 0.0325. Then A111G A145U C150G C169G U176C, with 0.00501; and A111G A145U C150G C169G U176A, with 0.00712. On to A111G A145U C150G C169G U176G, for which the reverse-splicing fitness came to 0.00482. For A111G A145G C169G, the reverse-splicing fitness turned out to be 0.118. Then A111G A145G C169A, with 0.053; and A111G A145G C169U, with 0.19. In the case of A111G A145G C150G C169U, the reverse-splicing fitness came out at 0.0298. In the case of A111G A145G C150G C169A, the reverse-splicing fitness is 0.0128. Then A111G A145G C150G C169G, with 0.0171; and A111G C150G C169U U176C, with 0.0163. Then A111G C150G C169U U176G, with 0.00532; and A111G C150G C169U U176A, with 0.00683; and A111G A145U C150U C169A U176C, with 0.0144. Regarding A111G A145U C150U C169A U176A, the reverse-splicing fitness is 0.0142.

A111G A145U C150U C169A U176G: the reverse-splicing fitness turned out to be 0.00557. Then A111G A145U C169U U176G, with 0.00767. Take A111G A145U C169U U176C: the reverse-splicing fitness amounted to 0.0656. Then A111G A145U C169U U176A, with 0.0488.
